# Source: patent US20060147922
# Tested on: chk2, endogenous (HEK 293 and MCF-7 cell extracts)
# Sequence (chain, as listed by the source): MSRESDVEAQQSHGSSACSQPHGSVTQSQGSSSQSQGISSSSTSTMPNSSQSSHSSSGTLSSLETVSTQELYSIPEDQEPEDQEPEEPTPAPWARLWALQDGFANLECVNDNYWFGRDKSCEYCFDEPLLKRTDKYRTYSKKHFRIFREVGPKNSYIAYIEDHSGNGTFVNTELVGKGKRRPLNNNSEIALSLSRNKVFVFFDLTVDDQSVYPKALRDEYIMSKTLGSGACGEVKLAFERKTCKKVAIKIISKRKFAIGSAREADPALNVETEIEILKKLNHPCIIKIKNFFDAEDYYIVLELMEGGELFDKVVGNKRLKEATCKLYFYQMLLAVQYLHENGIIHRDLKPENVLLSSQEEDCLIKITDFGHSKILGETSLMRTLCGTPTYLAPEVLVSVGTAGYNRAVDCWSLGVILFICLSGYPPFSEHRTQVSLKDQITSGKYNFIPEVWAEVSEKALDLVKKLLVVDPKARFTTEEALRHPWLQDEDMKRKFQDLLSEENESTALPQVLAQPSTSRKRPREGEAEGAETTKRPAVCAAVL
substance,measurement,value
"EDD protein, full length (aa 1-2799)",CHK2 kinase activity towards a GST-cdc25C substrate post-IR in the presence and absence of EDD,activation of CHK2 was delayed in cells lacking EDD and these cells were impaired in their ability to reach maximal CHK2 kinase activity
same,DNA damage-induced phosphorylation of CHK2 on T68 after EDD depletion by RNA interference,considerably diminished compared to control cells
